This note sets out measurements from PMC4144766.

In experiment [1] the target is YFP^N-TaHSP90 (Triticum aestivum). Briefly: split reporter (BiFC, NanoBiT); BiFC in tobacco (Nicotiana benthamiana) protoplasts; YFP^N (pSY736) and YFP^C (pSY735) fusions co-expressed by the polyethylene glycol method; fluorescence monitored 24-48 hours after transformation; fluorescent and observed cells counted from ten fields of vision.
The target of experiment [2] is YFP^N-TaNPSN11 (full-length TaNPSN11 fused to the N-terminal part of YFP) (Triticum aestivum (common wheat)). The experiment is described as above.
YFP^N-TaNPSN11 (full-length TaNPSN11 fused to the N-terminal part of YFP) (Triticum aestivum (common wheat)), sequence (main, as listed by the source): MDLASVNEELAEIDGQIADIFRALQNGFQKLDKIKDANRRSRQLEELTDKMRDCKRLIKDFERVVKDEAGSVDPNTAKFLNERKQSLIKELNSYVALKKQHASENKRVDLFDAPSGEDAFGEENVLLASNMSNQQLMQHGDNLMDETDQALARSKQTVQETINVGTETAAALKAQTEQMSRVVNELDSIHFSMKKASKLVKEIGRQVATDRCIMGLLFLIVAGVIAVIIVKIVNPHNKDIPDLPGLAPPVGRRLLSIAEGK

Consider YFP^C-TaRAR1 (natural protein), for which the ratio of fluorescent cells in experiment [1] was determined as 0.25.
On to “YFP^C-TaSYP132 (full-length TaSYP132 fused to the C-terminal part of YFP) (natural protein)”, for which the ratio of fluorescent cells in experiment [2] is 0.06.
